From article PMC7961048 (2021)
Non-standard residues stand in square brackets, D forms with d. No end group written: not given here. *: point of attachment. FITC = O=C1OC2(c3ccc(O)cc3Oc3cc(O)ccc32)c2ccc(NC(=S)*)cc21; pS = N[C@@H](COP(=O)(O)O)C(=O)O

T1: full-length human 14-3-3ε fused to the C terminus of MBP (human, UniProt P62258 1-255)
T1 chain: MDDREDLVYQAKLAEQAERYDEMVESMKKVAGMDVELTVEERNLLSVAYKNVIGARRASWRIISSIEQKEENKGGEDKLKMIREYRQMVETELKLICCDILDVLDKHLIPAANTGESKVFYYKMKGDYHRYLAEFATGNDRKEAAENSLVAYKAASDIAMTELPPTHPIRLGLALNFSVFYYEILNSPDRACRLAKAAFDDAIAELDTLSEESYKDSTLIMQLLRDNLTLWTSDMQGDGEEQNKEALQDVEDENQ

T2: full-length human 14-3-3β fused to the C terminus of MBP (human, UniProt P31946 1-246)
T2 chain: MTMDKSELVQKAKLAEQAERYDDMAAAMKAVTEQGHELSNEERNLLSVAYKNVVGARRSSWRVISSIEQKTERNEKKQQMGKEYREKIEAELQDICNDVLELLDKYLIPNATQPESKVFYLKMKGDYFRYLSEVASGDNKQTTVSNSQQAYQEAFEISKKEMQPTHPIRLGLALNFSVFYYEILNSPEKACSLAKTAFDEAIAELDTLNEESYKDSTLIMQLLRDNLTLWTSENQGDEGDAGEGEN

T3: unfused 14-3-3ε devoid of the flexible C-terminal tail (human)
T3 chain: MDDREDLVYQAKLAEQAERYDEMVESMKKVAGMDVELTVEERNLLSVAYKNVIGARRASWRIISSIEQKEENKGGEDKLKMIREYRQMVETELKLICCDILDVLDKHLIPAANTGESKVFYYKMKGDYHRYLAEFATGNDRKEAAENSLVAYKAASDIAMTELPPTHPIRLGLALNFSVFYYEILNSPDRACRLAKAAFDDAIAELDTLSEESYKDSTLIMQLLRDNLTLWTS

T4: unfused 14-3-3β devoid of the flexible C-terminal tail (human)
T4 chain: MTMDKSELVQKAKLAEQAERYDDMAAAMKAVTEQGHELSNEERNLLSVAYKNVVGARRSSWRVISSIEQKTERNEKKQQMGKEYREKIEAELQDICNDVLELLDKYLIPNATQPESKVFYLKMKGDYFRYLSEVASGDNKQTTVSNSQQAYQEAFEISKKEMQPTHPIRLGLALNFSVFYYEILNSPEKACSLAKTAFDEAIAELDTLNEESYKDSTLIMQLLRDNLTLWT

T5: full-length human 14-3-3η fused to the C terminus of MBP (human, UniProt Q04917 1-246)
T5 chain: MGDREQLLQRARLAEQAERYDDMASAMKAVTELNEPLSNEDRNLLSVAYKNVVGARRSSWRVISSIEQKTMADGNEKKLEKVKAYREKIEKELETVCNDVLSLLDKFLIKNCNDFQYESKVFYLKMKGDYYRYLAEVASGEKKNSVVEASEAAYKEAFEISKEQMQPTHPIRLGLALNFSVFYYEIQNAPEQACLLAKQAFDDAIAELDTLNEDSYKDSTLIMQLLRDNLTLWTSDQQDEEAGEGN

T6: unfused 14-3-3τ devoid of the flexible C-terminal tail (human)
T6 chain: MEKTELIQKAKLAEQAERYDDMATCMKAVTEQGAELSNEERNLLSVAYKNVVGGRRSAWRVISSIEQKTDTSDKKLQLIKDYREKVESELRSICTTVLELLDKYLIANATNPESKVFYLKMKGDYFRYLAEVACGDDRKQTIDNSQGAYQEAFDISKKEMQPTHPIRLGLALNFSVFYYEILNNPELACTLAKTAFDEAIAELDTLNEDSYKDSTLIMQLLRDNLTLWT

T7: full-length human 14-3-3σ fused to the C terminus of MBP (human, UniProt P31947 1-248)
T7 chain: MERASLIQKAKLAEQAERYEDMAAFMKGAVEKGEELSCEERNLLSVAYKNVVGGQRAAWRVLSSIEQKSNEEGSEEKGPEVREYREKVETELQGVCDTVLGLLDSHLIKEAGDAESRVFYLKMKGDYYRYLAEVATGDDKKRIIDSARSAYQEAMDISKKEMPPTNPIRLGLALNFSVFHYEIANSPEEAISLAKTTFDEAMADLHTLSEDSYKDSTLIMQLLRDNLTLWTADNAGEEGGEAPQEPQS

T8: full-length human 14-3-3τ fused to the C terminus of MBP (human, UniProt P27348 1-245)
T8 chain: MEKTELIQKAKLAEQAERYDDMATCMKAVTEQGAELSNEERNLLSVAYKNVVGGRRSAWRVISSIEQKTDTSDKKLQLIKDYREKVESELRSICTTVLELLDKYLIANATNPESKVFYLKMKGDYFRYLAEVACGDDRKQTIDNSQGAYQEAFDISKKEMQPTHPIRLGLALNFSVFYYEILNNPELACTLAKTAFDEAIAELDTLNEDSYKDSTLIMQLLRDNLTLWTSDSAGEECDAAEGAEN

B1: full-length human 14-3-3γ fused to the C terminus of MBP (natural protein)
chain: MVDREQLVQKARLAEQAERYDDMAAAMKNVTELNEPLSNEERNLLSVAYKNVVGARRSSWRVISSIEQKTSADGNEKKIEMVRAYREKIEKELEAVCQDVLSLLDNYLIKNCSETQYESKVFYLKMKGDYYRYLAEVATGEKRATVVESSEKAYSEAHEISKEHMQPTHPIRLGLALNYSVFYYEIQNAPEQACHLAKTAFDDAIAELDTLNEDSYKDSTLIMQLLRDNLTLWTSDQQDDDGGEGNN
B2: full-length human 14-3-3ζ fused to the C terminus of MBP (natural protein)
chain: MDKNELVQKAKLAEQAERYDDMAACMKSVTEQGAELSNEERNLLSVAYKNVVGARRSSWRVVSSIEQKTEGAEKKQQMAREYREKIETELRDICNDVLSLLEKFLIPNASQAESKVFYLKMKGDYYRYLAEVAAGDDKKGIVDQSQQAYQEAFEISKKEMQPTHPIRLGLALNFSVFYYEILNSPEKACSLAKTAFDEAIAELDTLSEESYKDSTLIMQLLRDNLTLWTSDTQGDEAEAGEGGEN

Columns and labels:
[1] = target: T1, full-length human 14-3-3ε fused to the …; assay: FP
[2] = target: B2; assay: FP
[3] = target: T2, full-length human 14-3-3β fused to the …; assay: FP
[4] = target: T3, unfused 14-3-3ε devoid of the flexible …; assay: FP
[5] = target: B1; assay: FP
[6] = target: T4, unfused 14-3-3β devoid of the flexible …; assay: FP
[7] = target: T5, full-length human 14-3-3η fused to the …; assay: FP
[8] = target: T6, unfused 14-3-3τ devoid of the flexible …; assay: FP
[9] = target: T7, full-length human 14-3-3σ fused to the …; assay: FP
[10] = target: T8, full-length human 14-3-3τ fused to the …; assay: FP
[11] = target: B1; assay: FP; with FSC
[12] = target: T9, HPV35 E6 phospho-PBM peptide p35E6 (human papillomavirus type 35); assay: FP
[13] = target: T10, HPV33 E6 phospho-PBM peptide p33E6 (human papillomavirus type 33); assay: FP
[14] = target: T9, HPV35 E6 phospho-PBM peptide p35E6; assay: FP; remark: listed apart in the source
[15] = target: T10, HPV33 E6 phospho-PBM peptide p33E6; assay: FP; +FSC
[16] = target: T9, HPV35 E6 phospho-PBM peptide p35E6; assay: FP; +FSC
[17] = target: T10, HPV33 E6 phospho-PBM peptide p33E6; assay: FP; with FSC
[18] = target: T10, HPV33 E6 phospho-PBM peptide p33E6; assay: FP; remark: listed apart in the source
[19] = target: T9, HPV35 E6 phospho-PBM peptide p35E6; assay: FP; with FSC

Binder	Kd [1] [µM]	Kd [2] [µM]	Kd [3] [µM]	Kd [4] [µM]	Kd [5] [µM]	Kd [6] [µM]	Kd [7] [µM]	Kd [8] [µM]	Kd [9] [µM]	Kd [10] [µM]	Kd [11] [µM]	Kd [12] [µM]	Kd [13] [µM]	Kd [14] [µM]	Kd [15] [µM]	Kd [16] [µM]	Kd [17] [µM]	Kd [18] [µM]	Kd [19] [µM]
{FITC}-WLRRA[pS]APLPGLK [fluorescently labeled HSPB6 phosphopeptide (fpB6)]	7.17	4.76	5.22	5.27	1.95	3.75	2.47	6.53	9.62	9	4.4	–	–	–	–	–	–	–	–
B1	–	–	–	–	–	–	–	–	–	–	–	125	0.9	125	2.2	228	2.15	–	–
B2	–	–	–	–	–	–	–	–	–	–	–	191	2.7	191	3.9	294	3.94	2.72	294
